± gives the standard error. For part of these data: Variants at the floor of the assay were thinned out.
B1: glmS ribozyme (parent)
chain: AUAAAAGCGCCAGAACUACAGAAAUGUAGUUGACGAGGAGGAGGUUUAUCGAAUUUUCGGCGGAUGCCUCCAAA

Assays:
Conditions in all cases: with glucosamine-6-phosphate
[1] = variants of: B1; assay: kcat; higher = faster cleavage; RNA array
Outline: (§1)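 Using a hybridised Cy3 probe at 37 °C, barcoded ribozyme variants transcribed in situ by E. coli RNA polymerase on sequenced MiSeq chips were monitored across tiles imaged over ~14 h. The flow contained glucosamine-6-phosphate from 40 μM to 10 mM in HEPES/KCl/Mg(OAc)2 buffer. Signals were normalised to baseline and to non-cleaving reference variants before per-tile medians were fit to one- or two-exponential decays to yield kobs. Weighted Michaelis–Menten fits across concentrations gave kcat and KM.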

[2] = variants of: B1; assay: KM; higher = weaker cofactor use; RNA array
Outline: as §1

[3] = variants of: B1; assay: self-cleavage kobs at 640 uM GlcN6P; higher = faster cleavage; RNA array
Outline: as §1

[4] = variants of: B1; assay: self-cleavage kobs at 2500 uM GlcN6P; higher = faster cleavage; RNA array
Outline: as §1

[5] = variants of: B1; assay: self-cleavage kobs at 10000 uM GlcN6P; higher = faster cleavage; RNA array
Outline: as §1

[6] = variants of: B1; assay: self-cleavage kobs at 40 uM GlcN6P; higher = faster cleavage; RNA array
Outline: as §1

[7] = variants of: B1; assay: self-cleavage kobs at 160 uM GlcN6P; higher = faster cleavage; RNA array
Outline: as §1

| Variant | kcat [1] | KM [2] | self-cleavage kobs at 640 uM GlcN6P [3] | self-cleavage kobs at 2500 uM GlcN6P [4] | self-cleavage kobs at 10000 uM GlcN6P [5] | self-cleavage kobs at 40 uM GlcN6P [6] | self-cleavage kobs at 160 uM GlcN6P [7] |
| --- | --- | --- | --- | --- | --- | --- | --- |
| G32U G41U | 0.000152 ± 3.7e-06 s⁻¹ | 1640 ± 170 µM | 4.19e-05 ± 1.5e-05 s⁻¹ | 9.36e-05 ± 1.9e-05 s⁻¹ | 0.00013 ± 1e-05 s⁻¹ | – | – |
| U65G C71U | 0.00415 ± 0.00046 s⁻¹ | 2960 ± 430 µM | 0.000688 ± 0.00013 s⁻¹ | 0.00232 ± 0.00055 s⁻¹ | 0.00316 ± 0.00037 s⁻¹ | 5.93e-05 ± 7e-06 s⁻¹ | 0.000189 ± 3.4e-05 s⁻¹ |
| G44C C67G | 0.0216 ± 0.0034 s⁻¹ | 3930 ± 790 µM | 0.00316 ± 0.00083 s⁻¹ | 0.00752 ± 0.0019 s⁻¹ | 0.0168 ± 0.0047 s⁻¹ | 0.000211 ± 4.8e-05 s⁻¹ | 0.000995 ± 0.00033 s⁻¹ |
| U31C A42U | 1.58e-05 ± 4.1e-06 s⁻¹ | – | – | – | – | < 1e-05 s⁻¹ | < 1e-05 s⁻¹ |
| C10A A48U | < 1e-05 s⁻¹ | – | < 1e-05 s⁻¹ | – | < 1e-05 s⁻¹ | – | – |
| G44A C71U | 9.17e-05 ± 8.5e-06 s⁻¹ | 1020 ± 370 µM | 2.9e-05 ± 1e-05 s⁻¹ | 7.37e-05 ± 9.8e-06 s⁻¹ | 7.95e-05 ± 9.2e-06 s⁻¹ | – | – |
| G51C U69A | < 1e-05 s⁻¹ | – | – | – | – | < 1e-05 s⁻¹ | – |
| A15C G41U | 0.000171 ± 7.6e-06 s⁻¹ | 879 ± 120 µM | 7.33e-05 ± 2.3e-05 s⁻¹ | 0.000137 ± 3.4e-05 s⁻¹ | 0.000154 ± 2.6e-05 s⁻¹ | – | – |
| U45A A53U | 0.054 ± 0.013 s⁻¹ | 1720 ± 500 µM | 0.0162 ± 0.0071 s⁻¹ | 0.0671 ± 0.03 s⁻¹ | 0.0432 ± 0.012 s⁻¹ | 0.00125 ± 0.00017 s⁻¹ | 0.00351 ± 0.0016 s⁻¹ |
| A15C G66U | 0.000265 ± 3.3e-05 s⁻¹ | 3080 ± 740 µM | 4.02e-05 ± 7.2e-06 s⁻¹ | 0.000134 ± 1.5e-05 s⁻¹ | 0.000194 ± 2.2e-05 s⁻¹ | – | – |
| C16G A33C | 4.59e-05 ± 3.9e-06 s⁻¹ | – | – | 3.96e-05 ± 1.6e-05 s⁻¹ | 4.28e-05 ± 1.3e-05 s⁻¹ | < 1e-05 s⁻¹ | – |
| G37U U47G | < 1e-05 s⁻¹ | – | < 1e-05 s⁻¹ | – | – | < 1e-05 s⁻¹ | – |
| G41U U54C | 0.00115 ± 0.00032 s⁻¹ | – | 0.000389 ± 0.0001 s⁻¹ | 0.00118 ± 0.00025 s⁻¹ | 0.00117 ± 0.00018 s⁻¹ | 0.000109 ± 1.9e-05 s⁻¹ | 0.000197 ± 4.5e-05 s⁻¹ |
| A15G A39C | 0.0119 ± 0.0054 s⁻¹ | – | 0.0011 ± 0.00014 s⁻¹ | 0.00446 ± 0.00072 s⁻¹ | 0.00811 ± 0.00088 s⁻¹ | 0.000149 ± 1.5e-05 s⁻¹ | 0.000242 ± 6.6e-05 s⁻¹ |
| A6C A53C | 2.09e-05 ± 4.9e-07 s⁻¹ | 1550 ± 150 µM | < 1e-05 s⁻¹ | – | – | – | < 1e-05 s⁻¹ |

— the supplement of paper PMC7125110
